Experimental findings from the array DNA melting data of Ke et al. are described below.

This data set is described as follows: melting temperature; melt of duplexes. The settings on record: sodium 0.0675 M; strand 1 µM.
In the case of “CGACGTGCCTCATGTGCTG+CAGCACATCTAGCACGTCG ((((((((...((((((((+))))))))...))))))))”, the Tm worked out at 47.8 °C.
As for “CGACGTGCGAAATGTGCTG+CAGCACATCGAGCACGTCG ((((((((...((((((((+))))))))...))))))))”, the figure is 55.9 °C; as for “CGACGTGCGGGATGTGCTG+CAGCACATTGAGCACGTCG ((((((((...((((((((+))))))))...))))))))”, 55.3 °C.
The value for “CGACGTGCTTCATGTGCTG+CAGCACATTGCGCACGTCG ((((((((...((((((((+))))))))...))))))))” was 46.5 °C; that for “CGACGTGCGCAATGTGCTG+CAGCACATTCGGCACGTCG ((((((((..(((((((((+)))))))))..))))))))” was 52.5 °C; that for “CGACGTGCACAATGTGCTG+CAGCACATCGCGCACGTCG ((((((((.(.((((((((+)))))))).).))))))))” was 48.5 °C.
As for “CGACGTGCTTGATGTGCTG+CAGCACATCGGGCACGTCG ((((((((..(((((((((+)))))))))..))))))))”, the figure is 56.8 °C; as for “CGACGTGCCTGATGTGCTG+CAGCACATACAGCACGTCG ((((((((...((((((((+))))))))...))))))))”, 50.8 °C.
Regarding “CGACGTGCAAGATGTGCTG+CAGCACATGGGGCACGTCG ((((((((...((((((((+))))))))...))))))))”, the Tm is 50.8 °C.
The value for “CGACGTGCTGGATGTGCTG+CAGCACATGCAGCACGTCG ((((((((((.((((((((+)))))))).))))))))))” was 61.3 °C; that for “CGACGTGCTCCATGTGCTG+CAGCACATATTGCACGTCG ((((((((...((((((((+))))))))...))))))))” was 47.9 °C; that for “CGACGTGCGTAATGTGCTG+CAGCACATACGGCACGTCG ((((((((...((((((((+))))))))...))))))))” was 52.6 °C.
As for “CGACGTGCAGAATGTGCTG+CAGCACATTCGGCACGTCG ((((((((.((((((((((+)))))))))).))))))))”, the figure is 59.9 °C.
As for “CGACGTGCCCGATGTGCTG+CAGCACATCAAGCACGTCG ((((((((..(((((((((+)))))))))..))))))))”, the figure is 52.8 °C.
On to “CGACGTGCCTCATGTGCTG+CAGCACATCCAGCACGTCG ((((((((...((((((((+))))))))...))))))))”, for which the Tm stood at 47.4 °C.
The value for “CGACGTGCTATATGTGCTG+CAGCACATATTGCACGTCG ((((((((.((((((((((+)))))))))).))))))))” was 56 °C.
The value for “CGACGTGCGATATGTGCTG+CAGCACATCGCGCACGTCG (((((((((..((((((((+))))))))..)))))))))” was 53.6 °C; that for “CGACGTGCTTAATGTGCTG+CAGCACATTCAGCACGTCG (((((((((.(((((((((+))))))))).)))))))))” was 55.5 °C; that for “CGACGTGCCGTATGTGCTG+CAGCACATGTGGCACGTCG (((((((((..((((((((+))))))))..)))))))))” was 55.7 °C.
The value for “CGACGTGCGGAATGTGCTG+CAGCACATACAGCACGTCG ((((((((.(.((((((((+)))))))).).))))))))” was 54.9 °C; that for “CGACGTGCAGGATGTGCTG+CAGCACATTTAGCACGTCG ((((((((...((((((((+))))))))...))))))))” was 50.3 °C.
For the substance “CGACGTGCCCAATGTGCTG+CAGCACATGATGCACGTCG ((((((((...((((((((+))))))))...))))))))”, the Tm is 49.7 °C.
The value for “CGACGTGCATCATGTGCTG+CAGCACATAGCGCACGTCG ((((((((...((((((((+))))))))...))))))))” was 48.2 °C.
As for “CGACGTGCGCAATGTGCTG+CAGCACATTATGCACGTCG ((((((((..(((((((((+)))))))))..))))))))”, the figure is 52.6 °C; as for “CGACGTGCTCCATGTGCTG+CAGCACATTCCGCACGTCG ((((((((...((((((((+))))))))...))))))))”, 45.6 °C; as for “CGACGTGCTGCATGTGCTG+CAGCACATATTGCACGTCG ((((((((...((((((((+))))))))...))))))))”, 49.3 °C.
As for “CGACGTGCGCAATGTGCTG+CAGCACATCGGGCACGTCG ((((((((.(.((((((((+)))))))).).))))))))”, the figure is 52.7 °C; as for “CGACGTGCCTTATGTGCTG+CAGCACATTGTGCACGTCG ((((((((...((((((((+))))))))...))))))))”, 45.7 °C; as for “CGACGTGCCAGATGTGCTG+CAGCACATCGCGCACGTCG ((((((((..(((((((((+)))))))))..))))))))”, 55.4 °C.
On to “CGACGTGCAGGATGTGCTG+CAGCACATTAGGCACGTCG ((((((((...((((((((+))))))))...))))))))”, for which the Tm is 51.3 °C.
Consider “CGACGTGCTCGATGTGCTG+CAGCACATACAGCACGTCG (((((((((..((((((((+))))))))..)))))))))”, for which the Tm came to 51.8 °C.
Regarding “CGACGTGCAATATGTGCTG+CAGCACATTACGCACGTCG ((((((((...((((((((+))))))))...))))))))”, the Tm came to 49.7 °C.
As for “CGACGTGCCATATGTGCTG+CAGCACATTGCGCACGTCG ((((((((...((((((((+))))))))...))))))))”, the figure is 51.5 °C; as for “CGACGTGCCCCATGTGCTG+CAGCACATTAGGCACGTCG (((((((((..((((((((+))))))))..)))))))))”, 52.5 °C.
For “CGACGTGCCGTATGTGCTG+CAGCACATAGAGCACGTCG ((((((((..(((((((((+)))))))))..))))))))”, the Tm was found to be 53.1 °C.
The value for “CGACGTGCAGTATGTGCTG+CAGCACATACAGCACGTCG ((((((((.((((((((((+)))))))))).))))))))” was 57.4 °C; that for “CGACGTGCGACATGTGCTG+CAGCACATTCCGCACGTCG (((((((((..((((((((+))))))))..)))))))))” was 53.6 °C.
As for “CGACGTGCATCATGTGCTG+CAGCACATGAGGCACGTCG ((((((((.((((((((((+)))))))))).))))))))”, the figure is 60.8 °C; as for “CGACGTGCTCGATGTGCTG+CAGCACATCTTGCACGTCG ((((((((..(((((((((+)))))))))..))))))))”, 53.3 °C.
As for “CGACGTGCCTGATGTGCTG+CAGCACATGCCGCACGTCG ((((((((...((((((((+))))))))...))))))))”, the figure is 47.5 °C.
As to “CGACGTGCACGATGTGCTG+CAGCACATACCGCACGTCG ((((((((...((((((((+))))))))...))))))))”, the melting temperature (Tm) amounted to 43.6 °C.
As for “CGACGTGCTCAATGTGCTG+CAGCACATCAGGCACGTCG ((((((((...((((((((+))))))))...))))))))”, the figure is 50.5 °C; as for “CGACGTGCCAAATGTGCTG+CAGCACATACGGCACGTCG (((((((((..((((((((+))))))))..)))))))))”, 53.2 °C; as for “CGACGTGCAGTATGTGCTG+CAGCACATGACGCACGTCG ((((((((...((((((((+))))))))...))))))))”, 49.1 °C.
Turning to “CGACGTGCCGGATGTGCTG+CAGCACATGGTGCACGTCG ((((((((...((((((((+))))))))...))))))))”, the Tm was found to be 47 °C.
“CGACGTGCCCAATGTGCTG+CAGCACATTGTGCACGTCG ((((((((.((((((((((+)))))))))).))))))))”: the Tm was 54.7 °C.
The value for “CGACGTGCTCGATGTGCTG+CAGCACATTAGGCACGTCG ((((((((...((((((((+))))))))...))))))))” was 50.9 °C.
The value for “CGACGTGCTCTATGTGCTG+CAGCACATTTTGCACGTCG ((((((((...((((((((+))))))))...))))))))” was 49 °C.
As for “CGACGTGCATTATGTGCTG+CAGCACATATTGCACGTCG (((((((((.(((((((((+))))))))).)))))))))”, the figure is 54.5 °C; as for “CGACGTGCGTCATGTGCTG+CAGCACATCTAGCACGTCG ((((((((...((((((((+))))))))...))))))))”, 51.5 °C.
With “CGACGTGCTCCATGTGCTG+CAGCACATGACGCACGTCG ((((((((..(((((((((+)))))))))..))))))))”, the Tm is 49.8 °C.
The value for “CGACGTGCGTGATGTGCTG+CAGCACATGCAGCACGTCG ((((((((...((((((((+))))))))...))))))))” was 54.1 °C.
As for “CGACGTGCAGAATGTGCTG+CAGCACATGACGCACGTCG ((((((((...((((((((+))))))))...))))))))”, the figure is 53.1 °C; as for “CGACGTGCCGAATGTGCTG+CAGCACATACAGCACGTCG ((((((((.(.((((((((+)))))))).).))))))))”, 50.4 °C; as for “CGACGTGCGATATGTGCTG+CAGCACATGCCGCACGTCG (((((((((..((((((((+))))))))..)))))))))”, 54.8 °C.
The value for “CGACGTGCTTAATGTGCTG+CAGCACATCCGGCACGTCG ((((((((...((((((((+))))))))...))))))))” was 49 °C; that for “CGACGTGCTGGATGTGCTG+CAGCACATTCTGCACGTCG ((((((((.(.((((((((+)))))))).).))))))))” was 55.6 °C; that for “CGACGTGCAGGATGTGCTG+CAGCACATAGTGCACGTCG (((((((((..((((((((+))))))))..)))))))))” was 50.6 °C.
As for “CGACGTGCAAAATGTGCTG+CAGCACATCCCGCACGTCG ((((((((...((((((((+))))))))...))))))))”, the Tm was determined as 47.2 °C.
The value for “CGACGTGCAGAATGTGCTG+CAGCACATATTGCACGTCG (((((((((..((((((((+))))))))..)))))))))” was 50.5 °C; that for “CGACGTGCGCGATGTGCTG+CAGCACATACAGCACGTCG ((((((((...((((((((+))))))))...))))))))” was 51.7 °C.
As for “CGACGTGCCTAATGTGCTG+CAGCACATCATGCACGTCG ((((((((.(.((((((((+)))))))).).))))))))”, the figure is 48.5 °C; as for “CGACGTGCTCAATGTGCTG+CAGCACATCATGCACGTCG ((((((((...((((((((+))))))))...))))))))”, 49.7 °C.
The value for “CGACGTGCTGTATGTGCTG+CAGCACATTCAGCACGTCG ((((((((((.((((((((+)))))))).))))))))))” was 57.5 °C; that for “CGACGTGCATTATGTGCTG+CAGCACATCCCGCACGTCG ((((((((...((((((((+))))))))...))))))))” was 46.1 °C.
In the case of “CGACGTGCTGCATGTGCTG+CAGCACATCGCGCACGTCG ((((((((...((((((((+))))))))...))))))))”, the Tm was 52.6 °C.

Broadly, the Tm is the temperature at which the thermal transition is half complete.
